Laboratory results as given in patent publication US11833164B2, “Methods of treating Fabry disease in patients having a mutation in the GLA gene” (Amicus Therapeutics, Inc., priority 2019, dated 2023).
Numbering of substitutions follows the chain as printed. In names and notes the source's numbering stands.

B1: P343A (protein)
chain: MQLRNPELHLGCALALRFLALVSWDIPGARALDNGLARTPTMGWLHWERFMCNLDCQEEPDSCISEKLFMEMAELMVSEGWKDAGYEYLCIDDCWMAPQRDSEGRLQADPQRFPHGIRQLANYVHSKGLKLGIYADVGNKTCAGFPGSFGYYDIDAQTFADWGVDLLKFDGCYCDSLENLADGYKHMSLALNRTGRSIVYSCEWPLYMWPFQKPNYTEIRQYCNHWRNFADIDDSWKSIKSILDWTSFNQERIVDVAGPGGWNDPDMLVIGNFGLSWNQQVTQMALWAIMAAPLFMSNDLRHISPQAKALLQDKDVIAINQDPLGKQGYQLRQGDNFEVWERALSGLAWAVAMINRQEIGGPRSYTIAVASLGKGVACNPACFITQLLPVKRKLGFYEWTSRLRSHINPTGTVLLQLENTMQMSLKDLL
B2: G346C (protein)
chain: B1 chain with A343P, G346C
B3: G346V (protein)
chain: B1 chain with A343P, G346V
B4: L344F (protein)
chain: B1 chain with A343P, L344F
B5: W349L (protein)
chain: B1 chain with A343P, W349L
B6: P343S (protein)
chain: B1 chain with A343S
B7: A350T (protein)
chain: B1 chain with A343P, A350T
B8: L344R (protein)
chain: B1 chain with A343P, L344R
B9: A350S (protein)
chain: B1 chain with A343P, A350S
B10: A352S (protein)
chain: B1 chain with A343P, A352S

These molecules were tested on mutant form of α-Gal A expressed in HEK-293 cells (assay: HEK assay (GLP HEK / Migalastat Amenability Assay): α-Gal A activity in lysates of transiently transfected HEK-293 cells incubated with or without 10 μM migalastat). Conditions: 10 μM migalastat versus baseline.
Type: cell-based, human
Method in brief: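 HEK-293 cells transiently transfected with mutant α-Gal A and incubated with or without 10 μM migalastat; lysate activity given as nmol free 4-MU released per mg protein per hour. Values are mean±SEM.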

Compared with B1, B2 is lower in “Absolute increase (% WT)” value: 21.2 % WT for the first, 9.7 % WT for the second.

First: B3
Second: B4
The “Absolute increase (% WT)” value of the first is higher: 22.7 % WT for the first, 9.0 % WT for the second.

First: B5
Second: B6
The “Absolute increase (% WT)” value of the first is lower: 11.8 % WT for the first, 19.0 % WT for the second.

Compared with B7, B8 is higher in “Absolute increase (% WT)” value: 14.4 % WT for the first, 15.3 % WT for the second.

Going from B9 to B10, the “Absolute increase (% WT)” value falls from 17.6 % WT to 12.1 % WT.

B1 and B2 are the same in Relative increase: 1.3 for the first, 1.3 for the second.

First: B3
Second: B4
The Relative increase of the first is lower: 1.8 for the first, 16.7 for the second.

B5 and B6 are the same in Relative increase: 1.3 for the first, 1.3 for the second.

Compared with B7, B8 is higher in Relative increase: 1.3 for the first, 2.3 for the second.

First: B9
Second: B10
The Relative increase of the first is higher: 1.3 for the first, 1.2 for the second.

Same assay, conditions: absence of migalastat; percentage of baseline wild-type α-Gal A activity; mean ± SEM

Compared with B1, B2 is lower in “Baseline α-Gal A activity (% WT)” value: 69.5 ± 4.9 % WT for the first, 39.5 ± 1.9 % WT for the second.

First: B3
Second: B4
The “Baseline α-Gal A activity (% WT)” value of the first is higher: 28.8 ± 2.4 % WT for the first, 0.6 ± 0.1 % WT for the second.

Compared with B5, B6 is higher in “Baseline α-Gal A activity (% WT)” value: 35 ± 1.6 % WT for the first, 62.1 ± 2.7 % WT for the second.

Compared with B7, B8 is lower in “Baseline α-Gal A activity (% WT)” value: 47.4 ± 3.7 % WT for the first, 10.9 ± 1.4 % WT for the second.

Compared with B9, B10 is lower in “Baseline α-Gal A activity (% WT)” value: 62.9 ± 4.2 % WT for the first, 52.8 ± 3.7 % WT for the second.

Same assay, conditions: lysates of HEK-293 cells transiently transfected with the mutant form, incubated 5 days in absence of migalastat; mean ± SEM

First: B1
Second: B2
The “Baseline α-Gal A activity” value of the first is higher: 25254 ± 2385 nmol/mg/h for the first, 18258 ± 1054 nmol/mg/h for the second.

Compared with B3, B4 is lower in “Baseline α-Gal A activity” value: 11683 ± 1406 nmol/mg/h for the first, 217 ± 25 nmol/mg/h for the second.

First: B5
Second: B6
The “Baseline α-Gal A activity” value of the first is lower: 18128 ± 742 nmol/mg/h for the first, 22132 ± 1243 nmol/mg/h for the second.

Going from B7 to B8, the “Baseline α-Gal A activity” value falls from 20227 ± 1499 nmol/mg/h to 4983 ± 848 nmol/mg/h.

B9 and B10 are within error of each other in “Baseline α-Gal A activity” value: 26493 ± 1291 nmol/mg/h for the first, 23476 ± 1901 nmol/mg/h for the second.

Same assay, conditions: lysates of HEK-293 cells transiently transfected with the mutant form, incubated 5 days with 10 μM migalastat; mean ± SEM

Compared with B1, B2 is lower in “10 μM migalastat α-Gal A activity” value: 32890 ± 2292 nmol/mg/h for the first, 22856 ± 1772 nmol/mg/h for the second.

Going from B3 to B4, the “10 μM migalastat α-Gal A activity” value falls from 20902 ± 2356 nmol/mg/h to 3629 ± 614 nmol/mg/h.

First: B5
Second: B6
The “10 μM migalastat α-Gal A activity” value of the first is lower: 24184 ± 1517 nmol/mg/h for the first, 29289 ± 2351 nmol/mg/h for the second.

Compared with B7, B8 is lower in “10 μM migalastat α-Gal A activity” value: 26484 ± 1189 nmol/mg/h for the first, 11592 ± 1593 nmol/mg/h for the second.

Going from B9 to B10, the “10 μM migalastat α-Gal A activity” value falls from 34474 ± 1484 nmol/mg/h to 28397 ± 1310 nmol/mg/h.

Same assay, conditions: with 10 μM migalastat, 5 days; percentage of baseline wild-type α-Gal A activity; mean ± SEM

Going from B1 to B2, the “10 μM migalastat α-Gal A activity (% WT)” value falls from 90.7 ± 3.7 % WT to 49.2 ± 2.9 % WT.

Compared with B3, B4 is lower in “10 μM migalastat α-Gal A activity (% WT)” value: 51.4 ± 3.9 % WT for the first, 9.6 ± 1.4 % WT for the second.

First: B5
Second: B6
The “10 μM migalastat α-Gal A activity (% WT)” value of the first is lower: 46.8 ± 3.2 % WT for the first, 81.1 ± 4.6 % WT for the second.

Compared with B7, B8 is lower in “10 μM migalastat α-Gal A activity (% WT)” value: 61.7 ± 2.7 % WT for the first, 26.2 ± 2.6 % WT for the second.

First: B9
Second: B10
The “10 μM migalastat α-Gal A activity (% WT)” value of the first is higher: 80.5 ± 3.6 % WT for the first, 64.9 ± 2.5 % WT for the second.
